# Laboratory results reported in paper PMC9210550.
# Numbering of substitutions follows the chain as printed. Where two headings read alike, the source gives them in different places.
# B1: cryo-EM substrate 2 (dsRNA)
# RNA 1: GGCGCGCGCCAAAAAUUUUUAAAAAAAAAA
# RNA 2: B1 RNA 1
# B2: 3' A5U5A10-tailed RNA duplex (dsRNA)
# RNA 1: AGUGCGCUGUAUCUUCAAGGCCACU
# RNA 2: AGUGGCCUUGAAGAUACAGCGCACUAAAAAUUUUUAAAAAAAAAA
# B3: 3' A20-tailed RNA duplex (dsRNA)
# RNA 1: AGUGCGCUGUAUCUUCAAGGCCACU
# RNA 2: B2 RNA 2 with U31A, U32A, U33A, U34A, U35A
# Tests used:
# [1] = target: T1, ZCCHC8 core (NEXT subunit);RBM7 core (NEXT subunit);MTR4 (human;human;human, UniProt Q6NZY4;Q9Y580;P42285 1-415+508-707;6-86;1-1042, internal_change||); experiment: cryo-EM
# [2] = target: T1, ZCCHC8 core (NEXT subunit);RBM7 core …; experiment: cryo-EM; remark: listed apart in the source
# [3] = target: ZCCHC8 core delta HD;RBM7 core (NEXT subunit);MTR4 (human;human;human, UniProt Q6NZY4;Q9Y580;P42285 176-415+508-707;6-86;1-1042, internal_change||); experiment: EMSA
# [4] = target: T1, ZCCHC8 core (NEXT subunit);RBM7 core …; experiment: EMSA
# [5] = target: T2, ZCCHC8 core (NEXT subunit);RBM7 core FAFA;MTR4 (human;human;human, UniProt Q6NZY4;Q9Y580;P42285 1-415+508-707;6-86;1-1042, internal_change|F13A;F52A|); experiment: EMSA
# [6] = target: T2, ZCCHC8 core (NEXT subunit);RBM7 core …; experiment: EMSA; remark: listed apart in the source
# [7] = target: T1, ZCCHC8 core (NEXT subunit);RBM7 core …; experiment: EMSA; remark: listed apart in the source
# [8] = target: ZCCHC8 core delta ZK;RBM7 core (NEXT subunit);MTR4 (human;human;human, UniProt Q6NZY4;Q9Y580;P42285 1-226+245-415+508-707;6-86;1-1042, internal_change||); experiment: EMSA
binder,measurement,setting,value
B1,binding result,[1],binds
"ACAUGAGGAUCACCCAUGUAAUCUCUUUCAAAAAAUACAAAAAAAA (structured_RNA, 2'-pyrene modified U at position 36) [cryo-EM substrate 1]",binding result,[2],binds
B2,binding signal,[3],~2 fold weaker than NEXT
same,Kd,[4],42 nM
same,binding signal,[5],~3 fold weaker than NEXT
B3,binding signal,[6],~2 fold weaker than NEXT on A20 tail
same,binding signal,[7],~10 fold weaker than NEXT on A5U5A10 tail
same,binding signal,[8],~4 fold tighter than NEXT on A20 tail
